Source: article PMC10454306, “Genome-Wide Identification of GmSPS Gene Family in Soybean and Expression Analysis in Response to Cold Stress”

T1: GmICE1 conserved domain (GmICE1-His) (Glycine max, UniProt B8XJY5 275-465)
T1 sequence: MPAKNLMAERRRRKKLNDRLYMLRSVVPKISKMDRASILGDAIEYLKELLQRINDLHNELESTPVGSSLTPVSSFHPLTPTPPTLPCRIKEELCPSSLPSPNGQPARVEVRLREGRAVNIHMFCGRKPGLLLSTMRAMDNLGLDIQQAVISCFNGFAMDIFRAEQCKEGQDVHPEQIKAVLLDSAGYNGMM


Target: T1, GmICE1 conserved domain (GmICE1-His)
Assay: EMSA; weakened dose-dependently by unlabeled same-sequence competitor; EMSA kit (Thermo Fisher Scientific); buffer, salt, pH and temperature not stated
Details: protein: recombinant; tags: His (PET-32a vector); chain copies: 2; label: biotin (forward strand); blunt

Row | Binder | binding result
1 | GmSPS18 promoter 50 bp probe (-68 to -117) (dsDNA) DNA 1: GTCTACACGTGTGTATCTCCATGCCCCACCATTCCTGCCACGTGGCAGTG DNA 2: CACTGCCACGTGGCAGGAATGGTGGGGCATGGAGATACACACGTGTAGAC | binds
2 | GmSPS8 promoter 50 bp probe (-66 to -115) (dsDNA) DNA 1: AGTCTACACGTGTGTATCTCCATGGCCCACCATTCCTTGCCACGTGTCAA DNA 2: TTGACACGTGGCAAGGAATGGTGGGCCATGGAGATACACACGTGTAGACT | binds
